# Results from PMC4787811 (Nucleic Acids Research, 2015).
# Key:
# [1] = target: the molecule itself; test: negative-stain EM, single particle 3D reconstruction
# E1FL (full-length E1) [2] = target: T1, E1FL (full-length E1) (bovine papillomavirus (BPV-1), UniProt P03116 1-605); test: gel filtration (SEC) and negative stain EM; no nucleotide cofactor; 50 uM E1, E1:DNA 6:1; settings: protein: recombinant; tags: GST fusion, tag cleaved with thrombin and removed; chain copies: 6; single strand
# E1FL (full-length E1) [3] = target: T1, E1FL (full-length E1); test: gel filtration (SEC); no nucleotide cofactor; 50 uM E1, E1:DNA 6:1; settings: protein: recombinant; tags: GST fusion, tag cleaved with thrombin and removed; chain copies: 6; fork: 10 bp duplex, 3' T20 and 5' C10 arms
# E1FL (full-length E1) [4] = target: T1, E1FL (full-length E1); test: gel filtration (SEC) and negative stain EM (20 A); streptavidin (MTS) bound to biotin; settings: protein: recombinant; tags: GST fusion, tag cleaved with thrombin and removed; chain copies: 6; label: 5'-biotin on top strand (dsDNA end); fork: 10 bp duplex, 3' T20 and 5' C10 arms
# E1FL (full-length E1) [5] = target: T1, E1FL (full-length E1); test: gel filtration (SEC) and negative stain EM (20 A); streptavidin (MTS) and anti-digoxigenin Fab bound to labels; settings: protein: recombinant; tags: GST fusion, tag cleaved with thrombin and removed; chain copies: 6; label: 5'-biotin on top strand; 5'-digoxigenin on bottom strand; fork: 10 bp duplex, 3' T20 and 5' C10 arms
# E1FL (full-length E1) [6] = target: T1, E1FL (full-length E1); test: hydroxyl radical footprinting; settings: protein: recombinant; tags: GST fusion, tag cleaved with thrombin and removed; chain copies: 6; label: 5'-32P on top strand; fork: 30 bp duplex, 3' T20 and 5' C8 arms
# E1FL (full-length E1) [7] = target: T1, E1FL (full-length E1); test: hydroxyl radical footprinting; 10-fold excess unlabelled T18 competitor; similar protection to top strand; settings: protein: recombinant; tags: GST fusion, tag cleaved with thrombin and removed; chain copies: 6; label: 3'-32P on bottom strand; fork: 3' T20 and 5' C8 arms; 29 bp as printed before labelling
binder,measurement,setting,value
full length BPV-1 E1 helicase (enzyme) MANDKGSNWDSGLGCSYLLTEAECESDKENEEPGAGVELSVESDRYDSQDEDFVDNASVFQGNHLEVFQALEKKAGEEQILNLKRKVLGSSQNSSGSEASETPVKRRKSGAKRRLFAENEANRVLTPLQVQGEGEGRQELNEEQAISHLHLQLVKSKNATVFKLGLFKSLFLCSFHDITRLFKNDKTTNQQWVLAVFGLAEVFFEASFELLKKQCSFLQMQKRSHEGGTCAVYLICFNTAKSRETVRNLMANTLNVREECLMLQPAKIRGLSAALFWFKSSLSPATLKHGALPEWIRAQTTLNESLQTEKFDFGTMVQWAYDHKYAEESKIAYEYALAAGSDSNARAFLATNSQAKHVKDCATMVRHYLRAETQALSMPAYIKARCKLATGEGSWKSILTFFNYQNIELITFINALKLWLKGIPKKNCLAFIGPPNTGKSMLCNSLIHFLGGSVLSFANHKSHFWLASLADTRAALVDDATHACWRYFDTYLRNALDGYPVSIDRKHKAAVQIKAPPLLVTSNIDVQAEDRYLYLHSRVQTFRFEQPCTDESGEQPFNITDADWKSFFVRLWGRLDLIDEEEDSEEDGDSMRTFTCSARNTNAVD,stoichiometry N,[1],6
E1 helicase domain (residues 299-605) (domain or fragment) QTTLNESLQTEKFDFGTMVQWAYDHKYAEESKIAYEYALAAGSDSNARAFLATNSQAKHVKDCATMVRHYLRAETQALSMPAYIKARCKLATGEGSWKSILTFFNYQNIELITFINALKLWLKGIPKKNCLAFIGPPNTGKSMLCNSLIHFLGGSVLSFANHKSHFWLASLADTRAALVDDATHACWRYFDTYLRNALDGYPVSIDRKHKAAVQIKAPPLLVTSNIDVQAEDRYLYLHSRVQTFRFEQPCTDESGEQPFNITDADWKSFFVRLWGRLDLIDEEEDSEEDGDSMRTFTCSARNTNAVD,binding result,[1],binds
TTTTTTTTTTTTTTTTTTTTTTTTTTTTTT (ssDNA) [ssDNA T30],binding result,E1FL (full-length E1) [2],binds
"RFJ 10 bp fork, 3' T20 and 5' C10 (dsDNA) DNA 1: CCTCAGCGCGTTTTTTTTTTTTTTTTTTTT DNA 2: CCCCCCCCCCCGCGCTGAGG",binding result,E1FL (full-length E1) [3],binds
"RFJ 10 bp fork, 5' dsDNA biotin (dsDNA) DNA 1: CCTCAGCGCGTTTTTTTTTTTTTTTTTTTT DNA 2: CCCCCCCCCCCGCGCTGAGG",binding result,E1FL (full-length E1) [4],binds
"RFJ 10 bp fork, 5' dsDNA biotin and 5' ssDNA digoxigenin (dsDNA) DNA 1: CCTCAGCGCGTTTTTTTTTTTTTTTTTTTT DNA 2: CCCCCCCCCCCGCGCTGAGG",binding result,E1FL (full-length E1) [5],binds
"30 bp fork, 3' T20 and 5' C8, top strand labelled (dsDNA) DNA 1: GGCTTGTATTTCACACCGCACCTCAGCGCGTTTTTTTTTTTTTTTTTTTT DNA 2: CCCCCCCCCGCGCTGAGGTGCGGTGTGAAATACAAGCC",binding result,E1FL (full-length E1) [6],binds
"30 bp fork, 3' T20 and 5' C8, bottom strand labelled (dsDNA) DNA 1: GGCTTGTATTTCACACCGCACCTCAGCGCGTTTTTTTTTTTTTTTTTTTT DNA 2: CCCCCCCCCGCGCTGAGGTGCGGTGTGAAATACAAG",binding result,E1FL (full-length E1) [7],binds
